From US20220298258A1 (Bristol-Myers Squibb, published 2022)

B1: recombinant human PSGL-1-Fc fusion protein (R&D Systems Catalog No. 3345-PS) (Fc fusion)
chain: QATEYEYLDYDFLPETEPPEMLRNSTDTTPLTGPGTPESTTVEPAARRSTGLDAGGAVTELTTELANMGNLSTDSAAMEIQTTQPAATEAQTTPLAATEAQTTRLTATEAQTTPLAATEAQTTPPAATEAQTTQPTGLEAQTTAPAAMEAQTTAPAAMEAQTTPPAAMEAQTTQTTAMEAQTTAPEATEAQTTQPTATEAQTTPLAAMEALSTEPSATEALSMEPTTKRGLFIPFSVSSVTHKGIPMAASNLSVIEGRMD
notes: Bought reagent; also called hPSGL-1-Fc; humPSGL-1-Fc; not shown: human IgG1, amino acids P100 to K330

How the values were obtained:
[1] = target: Human PSGL-1 (P-Selectin Glycoprotein Ligand 1) on primary human T cells / PBMC lymphocytes (human) (UniProt Q14242); experiment: flow cytometry; inhibition of VISTA dextramer binding to activated human CD4+ T cells, pH 6.0
[2] = target: T1, fluorescently-conjugated human VISTA dextramer (a streptavidin dextramer loaded with monobiotinylated … (human, UniProt Q9H7M9 33-194, monobiotinylated (avi-tagged in Example 6); loaded on a fluorescently-conjugated streptavidin dextramer); experiment: as above
T1 construct: Multimeric reagent: many biotinylated VISTA molecules on a streptavidin dextramer; also called VISTA dextramers; dextramer loaded with recombinant human avi-tagged VISTA
T1 sequence (looked up): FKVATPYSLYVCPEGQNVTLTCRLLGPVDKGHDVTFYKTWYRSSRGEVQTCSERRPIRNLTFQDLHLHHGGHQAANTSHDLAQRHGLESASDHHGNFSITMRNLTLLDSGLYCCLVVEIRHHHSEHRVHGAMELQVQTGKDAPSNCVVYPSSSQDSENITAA
Procedure: The ability of soluble PSGL-1 to disrupt VISTA dextramer binding to T cells was assessed by incubating activated T cells with fluorescently-conjugated VISTA dextramers (a streptavidin dextramer loaded with a sub-optimal molar ratio of monobiotinylated recombinant human VISTA molecules) in Hanks's Balanced Salt Solution at pH 6.0 and in the presence of titrated concentrations of a control (i.e., non-VISTA or PSGL-1 specific) antibody (dots), recombinant human PSGL-1-Fc fusion protein (triangles), or recombinant human P-selectin (R&D Systems, diamonds). The recombinant human PSGL-1 Fc fusion molecule was obtained from R&D Systems Catalog No. 3345-PS, and comprises the PSGL-1 ECD sequence shown in SEQ ID NO: 18, comprising positions 42-295 of a human PSGL-1 sequence of accession number AA50061 coupled at its C-terminal to an IEGRMD linker sequence (SEQ ID NO: 19) followed by amino acids P100 to K330 of human IgG1. After incubation, the binding of the VISTA dextramer to the T cells was measured by flow cytometry. IC50 values were calculated via nonlinear regression in Prism software (GraphPad). The results, which are shown in FIG. 3 and Table 1, indicate that PSGL-1 and P-selectin inhibit binding of VISTA to the activated CD4+ T cells in a dose dependent manner at acidic pH.

Row | Molecule | IC50 [1] | IC50 [2]
1 | recombinant human P-selectin (R&D Systems) (from UniProt P16109 42-771) (receptor) | 101 nM | –
2 | B1 | – | 20.5 nM
